One test deals with pSMAD5. The experiment in a line: Western-blot of pSMAD5 in Comma-D mammary epithelial cells. It is filed as cell-based, mouse. The settings on record: Comma-D cells blocked with LEFTY1 200 ng/ml 1 hour, stimulated with BMP7 and Nodal 50 ng/ml 30 minutes. As for the experimental part: FIGS. 4J-4L. LEFTY1 inhibits pSMAD2 and pSMAD5 in Comma-D mouse mammary epithelial cells. […] Comma-D cells were serum starved 16 hours and blocked with LEFTY1 (200 ng/ml) for 1 hour and stimulated with BMP7 (50 ng/ml) and Nodal (50 ng/ml) for 30 minutes in serum free media. Cells were harvested in 1×RIPA Buffer with 1× protease and phosphatase inhibitors on ice. Lysates were diluted in 4× sample buffer and boiled at 95° C. for 5 minutes and then run on a 10% SDS-page gradient gels at 100V for 1 hour. […] The membranes were incubated with either pSMAD2, pSMAD5, total SMAD2/3 or SMAD1/5/8 antibodies overnight. Incubation with secondary antibodies containing fluorophores at 1:20,000 dilution (IRDye 800CW conjugated goat anti-rabbit #926-32211, IRDye 680 conjugated goat anti-mouse antibodies #926-32220, LI-COR Biosciences, Lincoln, NE) enabled visualization on the Odyssey Infrared Imaging System from LI-COR Biosciences. […] Data are represented as median±S.D. Statistical analysis, one-way ANOVA with post-hoc Tukey multiple comparison, ****p<0.0001, ***p<0.001; unless stated analysis is non-significant with p>0.05.

A further test deals with T1, BMP7-BMPR2 interaction (Homo sapiens, UniProt Q13873).
T1 construct: endogenous in cells; host or cells: MDA-MB-231
T1 sequence (Q13873 27-1038): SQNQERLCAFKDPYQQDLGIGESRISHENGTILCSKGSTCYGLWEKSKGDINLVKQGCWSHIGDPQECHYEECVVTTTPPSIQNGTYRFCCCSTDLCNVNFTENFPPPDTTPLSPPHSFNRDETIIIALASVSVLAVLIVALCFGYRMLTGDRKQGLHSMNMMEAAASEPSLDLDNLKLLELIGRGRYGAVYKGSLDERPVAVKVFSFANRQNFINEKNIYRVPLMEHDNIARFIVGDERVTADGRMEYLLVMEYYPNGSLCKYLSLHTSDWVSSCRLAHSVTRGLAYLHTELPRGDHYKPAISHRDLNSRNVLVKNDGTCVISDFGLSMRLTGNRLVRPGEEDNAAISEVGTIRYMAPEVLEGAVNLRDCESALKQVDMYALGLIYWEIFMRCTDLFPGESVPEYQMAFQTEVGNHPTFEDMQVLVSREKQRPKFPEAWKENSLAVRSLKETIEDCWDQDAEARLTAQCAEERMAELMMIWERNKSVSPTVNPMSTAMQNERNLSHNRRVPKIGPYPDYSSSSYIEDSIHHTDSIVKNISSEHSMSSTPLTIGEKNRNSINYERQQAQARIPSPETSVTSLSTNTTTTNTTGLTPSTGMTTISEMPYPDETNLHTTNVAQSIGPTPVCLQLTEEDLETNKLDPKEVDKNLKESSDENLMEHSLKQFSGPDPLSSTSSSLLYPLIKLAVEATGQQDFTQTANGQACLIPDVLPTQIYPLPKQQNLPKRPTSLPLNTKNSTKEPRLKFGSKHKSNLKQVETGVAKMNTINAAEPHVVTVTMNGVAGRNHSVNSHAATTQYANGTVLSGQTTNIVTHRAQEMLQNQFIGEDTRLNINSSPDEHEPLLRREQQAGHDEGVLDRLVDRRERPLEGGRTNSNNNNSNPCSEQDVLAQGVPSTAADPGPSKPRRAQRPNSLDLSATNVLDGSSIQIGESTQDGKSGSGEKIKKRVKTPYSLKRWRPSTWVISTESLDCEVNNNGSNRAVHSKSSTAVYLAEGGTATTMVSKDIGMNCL
The experiment in a line: Proximity Ligation Assay of BMP7-BMPR2 interaction in MDA-MB-231. Format: cell-based. The following applies: 50 ng/mL BMP7 30 minutes, exogenous LEFTY 200 ng/mL. How it is done:
FIGS. 20 and 21 are data from an experiment in which the breast cancer cell line MDA-MB-231 was plated and serum starved for 24 hours. 50 ng/mL BMP7 was added for 30 minutes to activate pSMAD5, either in the absence or presence of exogenous LEFTY (200 ng/mL). LEFTY-BMPR2 interaction, BMP7-BMPR2 interaction (as visualized by Proximity Ligation Assay, red), pSMAD5 status (As visualized by Immunofluorescence, green) were monitored and captured.
For the PLA assay (DUOLink, OLink Biosciences, Sigma-Aldrich #DUO92102), cells were seeded and treated on 13 mm glass coverslips previously coated with Poly-L-Lysine (Millipore). The cells were fixed with ice cold 100% Methanol for 5 minutes at −20° C. and then rehydrated thrice in PBS for 5 min each. Coverslips were blocked for 30 min with PBS+3% BSA and then incubated with appropriate dilution of primary antibodies in PBS+1% BSA for 1 h in a moist environment at room temperature. Rabbit anti-LEFTY1 and Thermo mouse anti-BMPR2 were used to characterize the interaction between LEFTY and BMPR2 (Table S2). […]
Breast cancer cell line MDA-MB-231 was plated and serum starved for 24 hours. […] LEFTY-BMPR2 interaction, BMP7-BMPR2 interaction (as visualized by Proximity Ligation Assay, red), pSMAD5 status (As visualized by Immunofluorescence, green) were monitored and captured.

The subject of the next test is ACVR2B. Nature of the test: Proximity ligation assay with other TGF-β receptors. It is filed as binding. As for the experimental part:
FIGS. 5I-5J: LEFTY1 preferentially interacts with BMPR2. […] BMP7-BMPR2 interaction was used as a positive control, and mouse and rabbit IgGs were used as technical negative controls. The interaction of LEFTY with Wnt receptor LRP6 was analyzed as a biological negative control. […] Data are represented as median±S.D. Statistical analysis, one-way ANOVA post-hoc Tukey multiple comparison, ****p<0.0001, ***p<0.001; unless stated analysis is non-significant with p>0.05.
Next, we assessed the interaction of LEFTY with different type I and type II TGF-β receptors. BMP7-BMPR2 interaction was used as a positive control, and mouse and rabbit IgGs were used as technical negative controls. We also analyzed the interaction of LEFTY with Wnt receptor LRP6 as a biological negative control.

B1: LEFTY1: left-right determination factor 1, secreted TGF-β superfamily protein; generic LEFTY may mean LEFTY1 or LEFTY2 (protein, UniProt O75610 77-366, looked up)
Left-right determination …: RFSQSFREVAGRFLALEASTHLLVFGMEQRLPPNSELVQAVLRLFQEPVPKAALHRHGRLSPRSARARVTVEWLRVRDDGSNRTSLIDSRLVSVHESGWKAFDVTEAVNFWQQLSRPRQPLLLQVSVQREHLGPLASGAHKLVRFASQGAPAGLGEPQLELHTLDLGDYGAQGDCDPEAPMTEGTRCCRQEMYIDLQGMKWAENWVLEPPGFLAYECVGTCRQPPEALAFKWPFLGPRQCIASETDSLPMIVSIKEGGRTRPQVVSLPNMRVQKCSCASDGALVPRRLQP
B1: the pSMAD5 signal result in the test on pSMAD5 is “inhibited”. The BMP7-BMPR2 interaction entry with BMP7-BMPR2 interaction is “reduces BMP7-BMPR2 interactions”. Also, in the test with ACVR2B, the “interaction with other TGF-β receptors, ACVR2B” value is recorded as “also interacted”.

The values above are taken from US12012599B2, “Compositions and methods for modulating left-right differentiation factor (LEFTY) and bone morphogenic factor (BMP)” (CZ Biohub SF LLC, priority 2018, dated 2024).
